# Assay results as given in patent publication US20250042991A1 (University of Texas, published 2025).
# Legend:
# human leptin [1] = target: T1, human leptin (human, UniProt P41159 22-167); assay: ELISA, human leptin coated on plate, 1:20 diluted culture supernatant
# T1 construct: Bought recombinant protein coated on ELISA plates; also called Leptin protein; LEPTIN antigen
# Experimental: Binding of LEPTIN by monoclonal antibodies was first screened by ELISA using supernatants collected from the B cell cultures. Human or mouse LEPTIN protein (Sino Biologicals) was coated on a 96-well high binding plate over night at 4° C. in PBS. B cell culture supernatants (5 μl medium and 95 μl of PBS) were added at for binding to LEPTIN antigen coated on the plate. Bound antibody was detected using a secondary antibody against rabbit IgG conjugated with HRP and TMB substrate.
# human leptin [2] = target: T1, human leptin; assay: ELISA titration on coated leptin, 4 parameter fit
# Experimental: ELISA titration was used to determine the binding affinity of a panel of monoclonal antibodies to LEPTIN antigen. Binding constants (KD and/or EC 50) of a panel of monoclonal antibodies were estimated using the 4 parameter curve fitting with Prism GraphPad program. For Biacore analysis, all experiments were performed at 25° C. at a flow rate of 45 μl/min. An anti-human IgG Fc antibody (from ThermoFisher, at 50 μg/ml each in acetate buffer, pH 5.0) was immobilized onto a carboxymethyl dextran sensorchip (CM5) using amine coupling procedures based on instruction from the manufacturer. Purified rabbit/human chimeric antibody to be tested was diluted at a concentration of 5 μg/ml in 0.5% P20, HBS-EP buffer and injected on FC2 to reach 500 to 1000 RU. FC1 was used as the reference cell. Specific signals correspond to the difference of signals obtained on FC2 versus FC1. The analyte (recombinant human LEPTIN, apparent molecular weight 16 kDa on SDS-PAGE gel) was injected during 90 sec at series of concentration dilutions (100, 50, 25, 12.5, 6.25, and 3.13, 1.56 nM) in 0.5% P20, HBS-EP buffer. These concentrations were prepared from stock solution in 0.5% P20, HBS-EP. The dissociation phase of the analyte was monitored over a 30 minutes period. Running buffer was also injected under the same conditions as a double reference. After each running cycle, both flow cells were regenerated by injecting 20 to 45 μl of Glycine-HCl buffer pH 1.5. Binding KD on LEPTIN was calculated by koff/kₒₙ kinetic rate for each LEPTIN monoclonal antibodies (Table 3).
# T1 sequence (P41159 22-167 limits assumed): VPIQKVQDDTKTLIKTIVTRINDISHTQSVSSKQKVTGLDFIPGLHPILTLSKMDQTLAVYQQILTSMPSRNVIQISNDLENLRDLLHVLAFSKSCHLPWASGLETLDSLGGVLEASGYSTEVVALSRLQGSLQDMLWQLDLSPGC
Binder,absorbance at 450 nM (human leptin [1]),EC50 (human leptin [2])
"hLept-6 (antibody, V domains shown, Expressed as full human IgG in HEK293 cells) VH: QVQLMQSGAEVKKPGASVKVSCKASGYTFTSYYMHWVRQAPGQGLEWMGIINPSGGSTSYAQKFQGRVTMTRDTSTSTVYMELSSLRSEDTAVYYCARGFGYGGKALDYWGQGTTVTVSS VL: DIQMTQSPPTLSASVGDRVTITCRASQNINSRLAWYQQKPGRAPKLLIYKASTLESGVPSRFSGSGSGTEFTLTISSLQPDDFATYYCQQFDKYSITFGGGTKMEIK",0.663 absorbance at 450 nM,1 to 500 nM
"hLept-2 (antibody, V domains shown, Expressed as full human IgG in HEK293 cells) VH: not shown VL: DIQLTQSPSSLSASVGDRVTITCRAGQSVSRYLNWFQQKPGKAPKLLIYTSSNLQSGVPSRFSASGSGTDFTLTISSLQPEDFATYYCQQTYSTPWTFGQGTKLEIK",2.57 absorbance at 450 nM,1 to 500 nM
"hLept-1 (antibody, V domains shown, From a human scFv phage library, expressed as full human IgG in HEK293 cells) VH: QVQLQQLGPGLVKPSETLSLTCNVSGGSVSRGSHYWTWIRQPPGKGLEWIGYIHTDGSTNFNPSLKSRVTMSLDRSRNQFSLTLSSVTATDTAVYYCAREPGGALNFWGQGTLVTVSS VL: not shown",0.071 absorbance at 450 nM,1 to 500 nM
"hLept-5 (antibody, V domains shown, Expressed as full human IgG in HEK293 cells) VH: QVKLVEWSLSVVQPGRSLRLSCAASGFTFSSYAMHWVRQAPGKGLEWVAVISYDGSNKYYADSVKGRFTISRDNSKNTLYLQMNSLRAEDTAVYYCARGREYYYYMDVWGKGTTVSVSS VL: QSVLTQPPSVSVAPGKTARITCGGYNIARKSVHWYQQKPGQAPVLVMYNDNDRPSGIPERFSGSNSGNTATLTISRVEAGDEADYYCQVWDNSDYVFGTGTKVTVL",0.739 absorbance at 450 nM,1 to 500 nM
"hLept-3 (antibody, V domains shown, Expressed as full human IgG in HEK293 cells; also called hLetp-3) VH: QVQLVQSGAEVKKPGSSVKVSCKASGGTFSSYAISWVRQAPGQGLEWMGGIIPIFGTANYAQKFQGRVTITADESTSTAYMELSSLRSEDTAVYYCARSQVPSSYYYGMDVWGQGTMVTVSS VL: QSVLTQPPSVSGAPGQRVTISCTGGNSNIGAGYHVHWYQQLPGAAPKLLIYGDTNRPSGVPDRFSGSQSGTSASLAITGLQADDEADYYCQSYDRSRGGWFFGGGTQLTVL",0.19 absorbance at 450 nM,1 to 500 nM
